In test [1] the target is integrin αIIb cytoplasmic tail (αIIb CT, W988-E1008) (human) (UniProt P08514). Put plainly: SPR. A general note: SPR reads the build-up and loss of mass on a sensor chip optically.
The target is the same in test [2].

pKd: −log10 of the molar value.

Sequence of integrin αIIb cytoplasmic tail (αIIb CT, W988-E1008) (human) (P08514 1019-1039): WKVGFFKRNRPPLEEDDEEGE

The term pKd denotes the Kd on a negative log10 scale, so that one unit is a factor of ten. The substance “filamin A immunoglobulin repeat 21 (FLNa-Ig21) (from UniProt P21333 2236-2330) (domain or fragment)” showed a pKd in test [1] of 3.64. In test [2], this substance returned an inhibition by FLNa-Ig21 of the PAC1 binding of WT αIIbβ3 in CHO cells of 40%.

Source of the values: PMC4424056.
